This is an account of results in paper PMC11326118, “Oxamic transcarbamylase of Escherichia coli is encoded by the three genes allFGH (formerly fdrA, ylbE, and ylbF)” (Applied and Environmental Microbiology, 2024).

For orientation: Km means the concentration of substrate that gives half-maximal velocity. As a reminder, the kcat is the number of substrate molecules converted per active site and unit of time at saturation. The term kcat/Km denotes the second-order rate constant that governs catalysis at low substrate concentration.

Substrate in series [1]: NC(=O)C(=O)O
Briefly: oxamate consumption by HPLC, reverse reaction. Format: biochemical, Escherichia coli. As to conditions: co-substrate carbamoyl phosphate, 10 mM MgCl2, 100 mM Tris pH 9.0, 30 °C, 100 nM enzyme. The text has this: (§1) oxamate consumption by HPLC, reverse reaction on AllFGH (AllF-AllG-AllH; FdrA-YlbE-YlbF), oxamic transcarbamylase (OXTCase)

Substrate in series [2]: NC(=O)OP(=O)(O)O
As to the kind of experiment: oxamate consumption by HPLC, reverse reaction. The class given is biochemical, Escherichia coli. As to conditions: oxamate fixed at 40 mM, 10 mM MgCl2, 100 mM Tris pH 9.0, 30 °C, 100 nM enzyme.
From the text: as §1

B1: AllFGH (AllF-AllG-AllH; FdrA-YlbE-YlbF), oxamic transcarbamylase (OXTCase) (Escherichia coli K-12) (protein)
chain 1: MIHAFIKKGCFQDSVSLMIISRKLSESENVDDVSVMMGTPANKALLDTTGFWHDDFNNATPNDICVAIRSEAADAGIAQAIMQQLEEALKQLAQGSGSSQALTQVRRWDSACQKLPDANLALISVAGEYAAELANQALDRNLNVMMFSDNVTLEDEIQLKTRAREKGLLVMGPDCGTSMIAGTPLAFANVMPEGNIGVIGASGTGIQELCSQIALAGEGITHAIGLGGRDLSREVGGISALTALEMLSADEKSEVLAFVSKPPAEAVRLKIVNAMKATGKPTVALFLGYTPAVARDENVWFASSLDEAARLACLLSRVTARRNAIAPVSSGFICGLYTGGTLAAEAAGLLAGHLGVEADDTHQHGMMLDADSHQIIDLGDDFYTVGRPHPMIDPTLRNQLIADLGAKPQVRVLLLDVVIGFGATADPAASLVSAWQKACAARLDNQPLYAIATVTGTERDPQCRSQQIATLEDAGIAVVSSLPEATLLAAALIHPLSPAAQQHTPSLLENVAVINIGLRSFALELQSASKPVVHYQWSPVAGGNKKLARLLERLQ
chain 2: MFTSVAQANAAVIEQIRRARPHWLDVQPASSLISELNEGKTLLHAGPPMRWQEMTGPMKGACVGACLFEGWAKDEAQALAILEQGEVNFIPCHHVNAVGPMGGITSASMPMLVVENVTDGNRAYCNLNEGIGKVMRFGAYGEDVLTRHRWMRDVLMPVLSAALGRMERGIDLTAMMAQGITMGDEFHQRNIASSALLMRALAPQIARLDHDKQHIAEVMDFLSVTDQFFLNLAMAYCKAAMDAGAMIRAGSIVTAMTRNGNMFGIRVSGLGERWFTAPVNTPQGLFFTGFSQEQANPDMGDSAITETFGIGGAAMIAAPGVTRFVGAGGMEAARAVSEEMAEIYLERNMQLQIPSWDFQGACLGLDIRRVVETGITPLINTGIAHKEAGIGQIGAGTVRAPLACFEQALEALAESMGIG
chain 3: MTIIHPLLASSSAPNYRQSWRLAGVWRRAINLMTESGELLTLHRQGSGFGPGGWVLRRAQFDALCGGLCGNERPQVVAQGIRLGRFTVKQPQRYCLLRITPPAHPQPLAAAWMQRAEETGLFGPLALAASDPLPAELRQFRHCFQAALNGVKTDWRHWLGKGPGLTPSHDDTLSGMLLAAWYYGALDARSGRPFFACSDNLQLVTTAVSVSYLRYAAQGYFASPLLHFVHALSCPKRTAVAIDSLLALGHTSGADTLLGFWLGQQLLQGKP
notes: full-length subunits co-expressed from pET30b (pMB191) in E. coli BL21(DE3); 6xHis at N-terminus of AllF and C-terminus of AllH, tags kept; 62, 46, 31 kDa; 555, 419, 271 aa
For B1, in series [1], the Km amounted to 36.9 mM, the kcat stood at 58.5 s⁻¹ and the kcat/Km worked out at 1600 M⁻¹ s⁻¹. Moreover, in series [2], the Km was determined as 1.3 mM, the catalytic constant (kcat) was determined as 35.5 s⁻¹ and the kcat/Km came to 27300 M⁻¹ s⁻¹.
